The target of assay [1] is Thermodesulfobium acidiphilum form Iβ rubisco (Thermodesulfobium acidiphilum). Description: SEC-SAXS; 100 µl samples, 1-45 mg/ml rubisco incubated with or without CABP; Shodex KW804 column; 20 mM HEPES-OH pH 8.0, 300 mM NaCl, 10 mM MgCl2, 10 mM NaHCO3; 20 °C; molecular weight by volume of correlation. In general terms: SEC sorts molecules by how far they enter the pores of the column.

The target of assay [2] is Fervidicoccus fontis form Iβ rubisco (Fervidicoccus fontis). The description is as above.
For a further assay, the target named is T1, R. rubrum rubisco (Rhodospirillum rubrum, UniProt P04718).
T1 construct: gene cbbM; form II large subunit, L2 homodimer
T1 sequence (P04718 1-466): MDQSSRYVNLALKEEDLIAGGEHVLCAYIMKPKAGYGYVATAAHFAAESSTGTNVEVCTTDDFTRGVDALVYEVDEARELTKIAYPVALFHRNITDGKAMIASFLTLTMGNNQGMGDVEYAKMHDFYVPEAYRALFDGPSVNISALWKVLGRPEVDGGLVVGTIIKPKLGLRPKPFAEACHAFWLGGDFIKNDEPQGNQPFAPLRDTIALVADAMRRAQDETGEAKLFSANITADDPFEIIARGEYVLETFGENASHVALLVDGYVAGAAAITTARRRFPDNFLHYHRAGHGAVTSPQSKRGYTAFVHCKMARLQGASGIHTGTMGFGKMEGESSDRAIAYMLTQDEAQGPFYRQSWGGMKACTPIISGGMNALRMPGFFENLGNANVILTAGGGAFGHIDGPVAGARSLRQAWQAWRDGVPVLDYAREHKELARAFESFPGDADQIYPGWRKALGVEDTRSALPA
As to the kind of experiment: […]-CABP binding, liquid scintillation (active-site count). As to conditions: activated enzyme; labelled compound.

The target of assay [3] is Prometheoarchaeum syntrophicum rubisco (Prometheoarchaeum syntrophicum). As to the kind of experiment: SEC-SAXS; 100 µl samples, 1-45 mg/ml rubisco incubated with or without CABP; Shodex KW804 column; 20 mM HEPES-OH pH 8.0, 300 mM NaCl, 10 mM MgCl2, 10 mM NaHCO3; 20 °C; molecular weight by volume of correlation.
Assay [4] concerns the target Ammonifex degensii KC4 form Iβ rubisco (Ammonifex degensii KC4). The description is as above.
Assay [5] deals with Rhodopseudomonas faecalis form II rubisco (Rhodopseudomonas faecalis). Described as above.

This note sets out measurements from article PMC13454268 (Nature Communications, 2026).

In assay [1], “Thermodesulfobium acidiphilum form Iβ rubisco (enzyme)” registered a stoichiometry N of 2. In turn, “Fervidicoccus fontis form Iβ rubisco (enzyme)” registered a stoichiometry N in assay [2] of 2.

Regarding `O=C(O)[C@@](O)(COP(=O)(O)O)[C@H](O)[C@H](O)COP(=O)(O)O` [CABP], at R. rubrum rubisco, the “14C-CABP binding, liquid scintillation (active-site count)” value is on record as “An aliquot of activated R. rubrum was used for determination of rubisco active sites”.

As for “Prometheoarchaeum syntrophicum rubisco (enzyme)”, in assay [3], the stoichiometry N was 2.

Molecule “Ammonifex degensii KC4 form Iβ rubisco (enzyme)” had a stoichiometry N in assay [4] of 2.

Molecule “Rhodopseudomonas faecalis form II rubisco (enzyme)” displayed a stoichiometry N in assay [5] of 6.

The stoichiometry N is the number of molecules, sites or subunits per partner or assembly.
